B1: Twister Ribozyme (parent)
chain: AACACUGCCAAUGCCGGUCCCAAGCCCGGAUAAAAGUGGAGGGGGCGG

Variants of: B1
Assay: self-cleavage, relative activity (ratio to wild type); higher = more cleavage; co-transcriptional

Variant	self-cleavage
A23C G48A	0.14
A22U G44A	0.788
A23G U31A	0.602
A23G U31C	0.544
A23G U31G	0.746
G24C U31C	0.108
G24C U31G	0.0739
A23G C25A	0.0465
A23G C25U	0.132
A23G C27G	0.0997
A22U A30C	0.614
A23C A30U	0.264
A23C A30C	0.116
G24A U37G	0.0506
G24A U37C	0.067
G24U G29C	0.0648
G24U G29U	0.103
G24C G47U	0.0811
A22G G41C	0.133
A23U G24C	0.109
A23U G24A	0.0917
G24C A33G	0.101
A22U G47U	0.67
G24C G41U	0.0978

Variant	self-cleavage
G24C G41C	0.0814
A22U A33G	0.888
A23C G28C	0.0761
A23C G28A	0.225
G24U A40U	0.0893
G24U A40C	0.099
G24C G45U	0.119
A23U G47U	0.163
G24U G28U	0.0893
G24U G44A	0.127
G24U G44C	0.0809
G24U G44U	0.097
A23G G38C	0.289
A23G G43C	0.125
A23G G47A	0.265
A23G G47C	0.209
A22U G38U	0.353
A22U G38A	0.843
A23C G41A	0.138
A23C G41U	0.118
A22G C46A	0.227
A22G C46G	0.328
G24C G44U	0.0952
A23U C26G	0.101

Variant	self-cleavage
G24U U31G	0.13
G24U U31C	0.13
A22G A23C	0.115
A22G A23U	0.0557
A23G U37A	0.111
A23G U37G	0.17
A22U A34U	0.495
A22U A34C	0.0816
G24C C26U	0.126
G24C C26A	0.0895
G24A G28C	0.0749
G24A G28U	0.0869
A23G G41A	0.15
A23G G41U	0.0995
G24A U31G	0.105
G24C G43A	0.0738
A23C G47C	0.13
G24A A32G	0.11
G24A A32U	0.0696
A23C A32G	0.187
A23C A32C	0.22
A23C G43U	0.109
A23C G43C	0.123
A22G G24A	0.114

Variant	self-cleavage
A22G G24U	0.0699
A23G A33U	0.393
A23G A33C	0.187
A23G A33G	0.281
A23U G38U	0.236
A23U G38A	0.342
A23U G38C	0.499
G24C G36A	0.115
G24C G36C	0.0888
A22G G42C	0.0934
A22G G42A	0.0942
A22G G38U	0.122
A22G G38A	0.106
A22U A23C	0.0587
A22U A23U	0.102
A22C U31A	0.54
A22C U31C	1.12
A23C U37C	0.0915
A23C G24A	0.107
A23C G24U	0.0714
A23G A32U	0.393
A22U G43U	0.185
A22U G43A	0.136
A23G A30C	0.0761

Variant	self-cleavage
A23U G39A	0.061
A23U G39C	0.0667
G24C C25A	0.325
G24C C25G	0.118
A22G U31G	0.263
G24C G38A	0.106
G24C G38C	0.144
G24C G38U	0.0774
A23U G28A	0.211
A23U G28C	0.249
A23U G28U	0.279
G24C A35U	0.0871
G24C A35G	0.0669
A23G G28A	0.284
A23U A30C	0.115
G24A A33U	0.0989
G24U G42U	0.0953
G24A G36C	0.12
A22G C26U	0.101
G24U G39C	0.0634
G24U G39A	0.0948
A22U U31G	0.833
A22U U31A	0.521
G24C U37C	0.0778

Variant	self-cleavage
G24C U37G	0.12
A22U G41U	0.137
A22U C46G	0.816
A22U C46A	0.764
A22G G28C	0.215
A22G G28A	0.128
A22G G28U	0.197
A22U C27A	0.159
G24A G41A	0.0508
G24U G41U	0.0892
A23C C26A	0.199
A23C C26G	0.12
G24A G42U	0.091
G24A G42C	0.0923
A22U C25A	0.0894
A22U C25G	0.115
A23C U31G	0.274
A23C U31C	0.247
A23C U31A	0.363
A23C G39A	0.127
A23C G39C	0.103
A23G G36U	0.0865
A23G G36A	0.126
C25A A34C	0.0515

Variant	self-cleavage
G24A C27G	0.105
G24A C27A	0.0771
C25A A32C	0.0985
A23U A35G	0.17
A23U A35C	0.71
A23U A35U	0.614
A22C U37G	0.631
A22C U37A	0.84
A23U G44C	0.578
A22G A30U	0.316
A22G A30G	0.394
A23G C46A	0.328
C25A	0.144
A23G G44U	0.458
A23G G44A	0.604
G24U A34C	0.101
G24U A34G	0.189
A22U G28C	0.548
A22G A33C	0.147
G24A G39C	0.0986
A22G G43U	0.101
A22G G43C	0.154
G24C C27U	0.0994

From the RNAGym collection of RNA variant scans (doi:10.7554/elife.80360)
